Square brackets hold non-standard residues; d marks the D form. Ala(1H-tetrazol-5-yl) = N[C@@H](Cc1nnn[nH]1)C(=O)O

Assay [1] addresses T1, PAC1 receptor (UniProt P41586 21-468, limits assumed).
T1 sequence (looked up): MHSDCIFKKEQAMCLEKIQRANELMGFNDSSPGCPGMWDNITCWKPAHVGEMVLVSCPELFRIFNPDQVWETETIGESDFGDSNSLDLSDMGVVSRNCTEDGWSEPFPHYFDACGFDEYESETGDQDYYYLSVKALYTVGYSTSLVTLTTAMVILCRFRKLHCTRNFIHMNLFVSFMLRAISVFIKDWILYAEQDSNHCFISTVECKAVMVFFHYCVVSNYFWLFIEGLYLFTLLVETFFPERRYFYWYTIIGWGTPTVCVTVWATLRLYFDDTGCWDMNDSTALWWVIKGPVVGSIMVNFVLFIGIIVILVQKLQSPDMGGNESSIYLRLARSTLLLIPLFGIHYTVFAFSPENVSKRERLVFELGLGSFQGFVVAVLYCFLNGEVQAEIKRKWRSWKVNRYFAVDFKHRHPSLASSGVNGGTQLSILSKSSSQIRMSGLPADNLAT
Nature of the assay: cell-based or functional assay.

Assay [2] concerns the target T2, VPAC1 receptor (UniProt P32241 31-457, limits assumed).
T2 sequence (looked up): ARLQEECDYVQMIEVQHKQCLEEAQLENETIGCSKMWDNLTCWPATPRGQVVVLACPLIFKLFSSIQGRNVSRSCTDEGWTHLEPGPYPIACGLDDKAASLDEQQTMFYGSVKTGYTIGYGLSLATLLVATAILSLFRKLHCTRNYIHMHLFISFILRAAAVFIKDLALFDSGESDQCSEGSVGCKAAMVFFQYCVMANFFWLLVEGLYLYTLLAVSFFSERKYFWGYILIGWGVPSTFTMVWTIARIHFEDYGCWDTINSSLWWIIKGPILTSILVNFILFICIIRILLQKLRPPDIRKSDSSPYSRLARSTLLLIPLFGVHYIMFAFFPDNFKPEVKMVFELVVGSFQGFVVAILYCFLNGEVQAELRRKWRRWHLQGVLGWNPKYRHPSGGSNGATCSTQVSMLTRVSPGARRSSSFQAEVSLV
Put plainly: cell-based or functional assay.

B1: Peptide 28 (peptide)
peptide: Ac-HS[Ala(1H-tetrazol-5-yl)]GIFT[Ala(1H-tetrazol-5-yl)]SYSRYRKAAAVKKYLAAVL-NH2
SMILES: CC[C@H](C)[C@H](NC(=O)CNC(=O)[C@H](Cc1nnn[nH]1)NC(=O)[C@H](CO)NC(=O)[C@H](Cc1c[nH]cn1)NC(C)=O)C(=O)N[C@@H](Cc1ccccc1)C(=O)N[C@H](C(=O)N[C@@H](Cc1nnn[nH]1)C(=O)N[C@@H](CO)C(=O)N[C@@H](Cc1ccc(O)cc1)C(=O)N[C@@H](CO)C(=O)N[C@@H](CCCNC(=N)N)C(=O)N[C@@H](Cc1ccc(O)cc1)C(=O)N[C@@H](CCCNC(=N)N)C(=O)N[C@@H](CCCCN)C(=O)N[C@@H](C)C(=O)N[C@@H](C)C(=O)N[C@@H](C)C(=O)N[C@H](C(=O)N[C@@H](CCCCN)C(=O)N[C@@H](CCCCN)C(=O)N[C@@H](Cc1ccc(O)cc1)C(=O)N[C@@H](CC(C)C)C(=O)N[C@@H](C)C(=O)N[C@@H](C)C(=O)N[C@H](C(=O)N[C@@H](CC(C)C)C(N)=O)C(C)C)C(C)C)[C@@H](C)O
B1: in assay [1], the “EC50 (PAC1R), cAMP inducing effect” value was determined as 0.084 nM. Also, the “EC50 (VPAC1R), cAMP inducing effect” value in assay [2] was 0.029 nM.

B2: Peptide 26 (peptide)
peptide: Ac-HS[Ala(1H-tetrazol-5-yl)]GIFT[Ala(1H-tetrazol-5-yl)]AYSRYRKALAVKKYLAAVL-NH2
SMILES: CC[C@H](C)[C@H](NC(=O)CNC(=O)[C@H](Cc1nnn[nH]1)NC(=O)[C@H](CO)NC(=O)[C@H](Cc1c[nH]cn1)NC(C)=O)C(=O)N[C@@H](Cc1ccccc1)C(=O)N[C@H](C(=O)N[C@@H](Cc1nnn[nH]1)C(=O)N[C@@H](C)C(=O)N[C@@H](Cc1ccc(O)cc1)C(=O)N[C@@H](CO)C(=O)N[C@@H](CCCNC(=N)N)C(=O)N[C@@H](Cc1ccc(O)cc1)C(=O)N[C@@H](CCCNC(=N)N)C(=O)N[C@@H](CCCCN)C(=O)N[C@@H](C)C(=O)N[C@@H](CC(C)C)C(=O)N[C@@H](C)C(=O)N[C@H](C(=O)N[C@@H](CCCCN)C(=O)N[C@@H](CCCCN)C(=O)N[C@@H](Cc1ccc(O)cc1)C(=O)N[C@@H](CC(C)C)C(=O)N[C@@H](C)C(=O)N[C@@H](C)C(=O)N[C@H](C(=O)N[C@@H](CC(C)C)C(N)=O)C(C)C)C(C)C)[C@@H](C)O
Take B2: the “EC50 (PAC1R), cAMP inducing effect” value in assay [1] amounted to 0.066 nM. Moreover, the “EC50 (VPAC1R), cAMP inducing effect” value in assay [2] was determined as 0.075 nM.

B3: Peptide 24 (peptide)
peptide: Ac-HA[Ala(1H-tetrazol-5-yl)]GIFT[Ala(1H-tetrazol-5-yl)]AYSRYRKQLAVKKYLAAVL-NH2
SMILES: CC[C@H](C)[C@H](NC(=O)CNC(=O)[C@H](Cc1nnn[nH]1)NC(=O)[C@H](C)NC(=O)[C@H](Cc1c[nH]cn1)NC(C)=O)C(=O)N[C@@H](Cc1ccccc1)C(=O)N[C@H](C(=O)N[C@@H](Cc1nnn[nH]1)C(=O)N[C@@H](C)C(=O)N[C@@H](Cc1ccc(O)cc1)C(=O)N[C@@H](CO)C(=O)N[C@@H](CCCNC(=N)N)C(=O)N[C@@H](Cc1ccc(O)cc1)C(=O)N[C@@H](CCCNC(=N)N)C(=O)N[C@@H](CCCCN)C(=O)N[C@@H](CCC(N)=O)C(=O)N[C@@H](CC(C)C)C(=O)N[C@@H](C)C(=O)N[C@H](C(=O)N[C@@H](CCCCN)C(=O)N[C@@H](CCCCN)C(=O)N[C@@H](Cc1ccc(O)cc1)C(=O)N[C@@H](CC(C)C)C(=O)N[C@@H](C)C(=O)N[C@@H](C)C(=O)N[C@H](C(=O)N[C@@H](CC(C)C)C(N)=O)C(C)C)C(C)C)[C@@H](C)O
On to B3, for which the “EC50 (PAC1R), cAMP inducing effect” value in assay [1] is 0.083 nM. The “EC50 (VPAC1R), cAMP inducing effect” value in assay [2] was found to be 0.088 nM.

B4: Peptide 23 (peptide)
peptide: HSXAIFTXSYSRYRKQLAVKKYLAAVL
modifications: N-terminal acetyl (Ac-); Tz (aspartic acid with carboxyl group replaced by tetrazole) at positions 3 and 8; C-terminal amide (NH2)
As to B4, in assay [1], the “EC50 (PAC1R), cAMP inducing effect” value was determined as 0.079 nM. In addition, in assay [2], the “EC50 (VPAC1R), cAMP inducing effect” value came to 0.072 nM.

B5: Peptide 25 (peptide)
peptide: Ac-HA[Ala(1H-tetrazol-5-yl)]GIFT[Ala(1H-tetrazol-5-yl)]SYSRYRKQAAVKKYLAAVL-NH2
SMILES: CC[C@H](C)[C@H](NC(=O)CNC(=O)[C@H](Cc1nnn[nH]1)NC(=O)[C@H](C)NC(=O)[C@H](Cc1c[nH]cn1)NC(C)=O)C(=O)N[C@@H](Cc1ccccc1)C(=O)N[C@H](C(=O)N[C@@H](Cc1nnn[nH]1)C(=O)N[C@@H](CO)C(=O)N[C@@H](Cc1ccc(O)cc1)C(=O)N[C@@H](CO)C(=O)N[C@@H](CCCNC(=N)N)C(=O)N[C@@H](Cc1ccc(O)cc1)C(=O)N[C@@H](CCCNC(=N)N)C(=O)N[C@@H](CCCCN)C(=O)N[C@@H](CCC(N)=O)C(=O)N[C@@H](C)C(=O)N[C@@H](C)C(=O)N[C@H](C(=O)N[C@@H](CCCCN)C(=O)N[C@@H](CCCCN)C(=O)N[C@@H](Cc1ccc(O)cc1)C(=O)N[C@@H](CC(C)C)C(=O)N[C@@H](C)C(=O)N[C@@H](C)C(=O)N[C@H](C(=O)N[C@@H](CC(C)C)C(N)=O)C(C)C)C(C)C)[C@@H](C)O
Take B5: in assay [1], the “EC50 (PAC1R), cAMP inducing effect” value is 0.088 nM. Besides, the “EC50 (VPAC1R), cAMP inducing effect” value in assay [2] is 0.028 nM.

B6: Peptide 27 (peptide)
peptide: Ac-HS[Ala(1H-tetrazol-5-yl)]GIFT[Ala(1H-tetrazol-5-yl)]AYSRYRKQAAVKKYLAAVL-NH2
SMILES: CC[C@H](C)[C@H](NC(=O)CNC(=O)[C@H](Cc1nnn[nH]1)NC(=O)[C@H](CO)NC(=O)[C@H](Cc1c[nH]cn1)NC(C)=O)C(=O)N[C@@H](Cc1ccccc1)C(=O)N[C@H](C(=O)N[C@@H](Cc1nnn[nH]1)C(=O)N[C@@H](C)C(=O)N[C@@H](Cc1ccc(O)cc1)C(=O)N[C@@H](CO)C(=O)N[C@@H](CCCNC(=N)N)C(=O)N[C@@H](Cc1ccc(O)cc1)C(=O)N[C@@H](CCCNC(=N)N)C(=O)N[C@@H](CCCCN)C(=O)N[C@@H](CCC(N)=O)C(=O)N[C@@H](C)C(=O)N[C@@H](C)C(=O)N[C@H](C(=O)N[C@@H](CCCCN)C(=O)N[C@@H](CCCCN)C(=O)N[C@@H](Cc1ccc(O)cc1)C(=O)N[C@@H](CC(C)C)C(=O)N[C@@H](C)C(=O)N[C@@H](C)C(=O)N[C@H](C(=O)N[C@@H](CC(C)C)C(N)=O)C(C)C)C(C)C)[C@@H](C)O
On to B6, for which the “EC50 (PAC1R), cAMP inducing effect” value in assay [1] was determined as 0.06 nM. For the same molecule, the “EC50 (VPAC1R), cAMP inducing effect” value in assay [2] amounted to 0.044 nM.

B7: Peptide 21 (peptide)
peptide: Ac-HS[Ala(1H-tetrazol-5-yl)]GIFT[Ala(1H-tetrazol-5-yl)]SYSRYRRQLAVRRYLAAVL-NH2
SMILES: CC[C@H](C)[C@H](NC(=O)CNC(=O)[C@H](Cc1nnn[nH]1)NC(=O)[C@H](CO)NC(=O)[C@H](Cc1c[nH]cn1)NC(C)=O)C(=O)N[C@@H](Cc1ccccc1)C(=O)N[C@H](C(=O)N[C@@H](Cc1nnn[nH]1)C(=O)N[C@@H](CO)C(=O)N[C@@H](Cc1ccc(O)cc1)C(=O)N[C@@H](CO)C(=O)N[C@@H](CCCNC(=N)N)C(=O)N[C@@H](Cc1ccc(O)cc1)C(=O)N[C@@H](CCCNC(=N)N)C(=O)N[C@@H](CCCNC(=N)N)C(=O)N[C@@H](CCC(N)=O)C(=O)N[C@@H](CC(C)C)C(=O)N[C@@H](C)C(=O)N[C@H](C(=O)N[C@@H](CCCNC(=N)N)C(=O)N[C@@H](CCCNC(=N)N)C(=O)N[C@@H](Cc1ccc(O)cc1)C(=O)N[C@@H](CC(C)C)C(=O)N[C@@H](C)C(=O)N[C@@H](C)C(=O)N[C@H](C(=O)N[C@@H](CC(C)C)C(N)=O)C(C)C)C(C)C)[C@@H](C)O
For the molecule B7, the “EC50 (PAC1R), cAMP inducing effect” value in assay [1] came to 0.102 nM. Moreover, the “EC50 (VPAC1R), cAMP inducing effect” value in assay [2] was 0.268 nM.

B8: Peptide 22 (peptide)
peptide: Ac-HS[Ala(1H-tetrazol-5-yl)]GIFT[Ala(1H-tetrazol-5-yl)]SYSRYRRQLAVRRYLAAVLGRR-NH2
SMILES: CC[C@H](C)[C@H](NC(=O)CNC(=O)[C@H](Cc1nnn[nH]1)NC(=O)[C@H](CO)NC(=O)[C@H](Cc1c[nH]cn1)NC(C)=O)C(=O)N[C@@H](Cc1ccccc1)C(=O)N[C@H](C(=O)N[C@@H](Cc1nnn[nH]1)C(=O)N[C@@H](CO)C(=O)N[C@@H](Cc1ccc(O)cc1)C(=O)N[C@@H](CO)C(=O)N[C@@H](CCCNC(=N)N)C(=O)N[C@@H](Cc1ccc(O)cc1)C(=O)N[C@@H](CCCNC(=N)N)C(=O)N[C@@H](CCCNC(=N)N)C(=O)N[C@@H](CCC(N)=O)C(=O)N[C@@H](CC(C)C)C(=O)N[C@@H](C)C(=O)N[C@H](C(=O)N[C@@H](CCCNC(=N)N)C(=O)N[C@@H](CCCNC(=N)N)C(=O)N[C@@H](Cc1ccc(O)cc1)C(=O)N[C@@H](CC(C)C)C(=O)N[C@@H](C)C(=O)N[C@@H](C)C(=O)N[C@H](C(=O)N[C@@H](CC(C)C)C(=O)NCC(=O)N[C@@H](CCCNC(=N)N)C(=O)N[C@@H](CCCNC(=N)N)C(N)=O)C(C)C)C(C)C)[C@@H](C)O
With B8, the “EC50 (PAC1R), cAMP inducing effect” value in assay [1] was found to be 0.13 nM. The “EC50 (VPAC1R), cAMP inducing effect” value in assay [2] is 0.457 nM.

Values taken from patent publication US20220202905A1, “COMPOSITION FOR PREVENTING OR TREATING NEUROTROPHIC KERATITIS WHICH CONTAINS PACAP PEPTIDE OR STABILIZED PACAP PEPTIDE” (SENJU PHARMACEUTICAL CO., LTD., priority 2019, published 2022).
